{"source": "patent US20240309103A1", "about": "(Regeneron, published 2024)", "key": {"mfNPR1-mFc:hBNP complex": {"biological_target": "T1, mfNPR1-mFc:hBNP complex (monkey; human, UniProt P16860 103-134)", "T1 construct": "also called monkey NPR1 complexed to BNP", "assay": "SPR, mAb captured, 25C", "protocol": "(§1) Equilibrium dissociation constant (KD) for different NPR1 reagents binding to purified anti-NPR1 monoclonal antibodies (mAbs) were determined using a real-time surface plasmon resonance based Biacore 4000 biosensor. All binding studies were performed in 10 mM HEPES, 150 mM NaCl, 3 mM EDTA, and 0.05% v/v Surfactant Tween-20, pH 7.4 (HBS-ET) running buffer at 25° C. and 37° C. The Biacore CM5 sensor chip surface was first derivatized by amine coupling with either mouse anti-human Fc specific mAb (GE Healthcare, #BR100839) or goat anti-human Fcy specific polyclonal antibody (Jackson ImmunoResearch Laboratories, #BR-1008-39) to capture anti-NPR1 mAbs."}, "mfNPR1-mFc:hANP complex [1]": {"biological_target": "T2, mfNPR1-mFc:hANP complex (monkey; human, UniProt P01160 124-151)", "T2 construct": "also called monkey NPR1 complexed to ANP", "assay": "SPR, mAb captured, 25C", "protocol": "as §1"}, "hNPR1-mFc:hBNP complex [2]": {"biological_target": "T3, hNPR1-mFc:hBNP complex (human, UniProt P16860 103-134)", "T3 construct": "also called human NPR1 complexed to BNP", "assay": "SPR, mAb captured, 25C", "protocol": "as §1"}, "mfNPR1-mFc [3]": {"biological_target": "T4, mfNPR1-mFc (monkey)", "T4 construct": "also called dimeric monkey NPR1", "T4 chain": "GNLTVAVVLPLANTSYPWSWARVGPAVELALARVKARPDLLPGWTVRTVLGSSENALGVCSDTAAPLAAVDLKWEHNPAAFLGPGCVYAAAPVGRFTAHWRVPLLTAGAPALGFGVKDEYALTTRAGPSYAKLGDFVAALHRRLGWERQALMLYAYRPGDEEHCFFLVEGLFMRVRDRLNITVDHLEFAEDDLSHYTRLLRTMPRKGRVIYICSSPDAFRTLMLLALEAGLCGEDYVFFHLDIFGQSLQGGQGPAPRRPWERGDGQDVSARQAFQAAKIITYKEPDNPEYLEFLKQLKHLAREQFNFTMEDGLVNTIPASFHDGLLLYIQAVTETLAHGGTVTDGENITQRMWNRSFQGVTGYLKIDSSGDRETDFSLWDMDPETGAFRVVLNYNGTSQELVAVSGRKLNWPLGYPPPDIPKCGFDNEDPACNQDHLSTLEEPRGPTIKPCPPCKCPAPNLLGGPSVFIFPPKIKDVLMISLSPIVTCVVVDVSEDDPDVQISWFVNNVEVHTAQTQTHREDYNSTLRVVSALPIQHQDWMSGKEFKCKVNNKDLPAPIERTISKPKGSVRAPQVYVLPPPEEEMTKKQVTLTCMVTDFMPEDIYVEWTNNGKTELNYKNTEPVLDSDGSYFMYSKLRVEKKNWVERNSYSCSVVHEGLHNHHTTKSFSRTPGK", "assay": "SPR, mAb captured, 25C", "protocol": "as §1"}, "[4]": {"biological_target": "T5, hNPR1-mFc:hANP or hNPR1-hFc:hANP complex (human, UniProt P01160 124-151)", "T5 construct": "also called human NPR1 complexed to ANP", "assay": "SPR, mAb captured, 25C", "protocol": "as §1"}, "mfNPR1-mFc:hANP complex [5]": {"biological_target": "T2, mfNPR1-mFc:hANP complex", "assay": "SPR, mAb captured, 37C", "protocol": "as §1"}, "hNPR1-mFc:hBNP complex [6]": {"biological_target": "T3, hNPR1-mFc:hBNP complex", "assay": "SPR, mAb captured, 37C", "protocol": "as §1"}, "mfNPR1-mFc [7]": {"biological_target": "T4, mfNPR1-mFc", "assay": "SPR, mAb captured, 37C", "protocol": "as §1"}, "[8]": {"biological_target": "T5, hNPR1-mFc:hANP or hNPR1-hFc:hANP complex", "assay": "SPR, mAb captured, 37C", "protocol": "as §1"}}, "data": [{"binder": "mAb25479 (antibody, human IgG4, V domains shown) VH: QVQLVQSGAEVKKPGASVKVSCKASGYTFTGYYIHWVRQAPGQGLEWMGWINPNSIGTNYAQKFQGRVTLTRDTSISTAYMELSSLRSDDTAVYYCARGGSSSYYYYYYGMDVWGQGTTVTVSS VL: DIQMTQSPSSLSASVGDRVTITCRASQSIDNYLNWYQQKPGKAPKLLIYVASSLQSGVPSRFSGSGSGTDFTLTISSLQPEDFATYYCQQSYSTPLTFGGGTKVEIK", "values": [{"measurement": "100 nM Ag Bound (RU)", "setting": "mfNPR1-mFc:hBNP complex", "result": 86, "unit": "RU"}, {"measurement": "Kd", "setting": "mfNPR1-mFc:hBNP complex", "result": 2.95, "unit": "nM"}, {"measurement": "koff", "setting": "mfNPR1-mFc:hBNP complex", "result": 0.000113, "unit": "s⁻¹"}, {"measurement": "kon", "setting": "mfNPR1-mFc:hBNP complex", "result": 38100, "unit": "M⁻¹ s⁻¹"}, {"measurement": "t½", "setting": "mfNPR1-mFc:hBNP complex", "result": 1.71, "unit": "h"}, {"measurement": "100 nM Ag Bound (RU)", "setting": "mfNPR1-mFc:hANP complex [1]", "result": 86, "unit": "RU"}, {"measurement": "Kd", "setting": "mfNPR1-mFc:hANP complex [1]", "result": 2.44, "unit": "nM"}, {"measurement": "koff", "setting": "mfNPR1-mFc:hANP complex [1]", "result": 0.000103, "unit": "s⁻¹"}, {"measurement": "kon", "setting": "mfNPR1-mFc:hANP complex [1]", "result": 42000, "unit": "M⁻¹ s⁻¹"}, {"measurement": "t½", "setting": "mfNPR1-mFc:hANP complex [1]", "result": 1.88, "unit": "h"}, {"measurement": "100 nM Ag Bound (RU)", "setting": "hNPR1-mFc:hBNP complex [2]", "result": 50, "unit": "RU"}, {"measurement": "Kd", "setting": "hNPR1-mFc:hBNP complex [2]", "result": 4.21, "unit": "nM"}, {"measurement": "koff", "setting": "hNPR1-mFc:hBNP complex [2]", "result": 0.000123, "unit": "s⁻¹"}, {"measurement": "kon", "setting": "hNPR1-mFc:hBNP complex [2]", "result": 29200, "unit": "M⁻¹ s⁻¹"}, {"measurement": "t½", "setting": "hNPR1-mFc:hBNP complex [2]", "result": 1.57, "unit": "h"}, {"measurement": "100 nM Ag Bound (RU)", "setting": "mfNPR1-mFc [3]", "result": 54, "unit": "RU"}, {"measurement": "Kd", "setting": "mfNPR1-mFc [3]", "result": 16.2, "unit": "nM"}, {"measurement": "koff", "setting": "mfNPR1-mFc [3]", "result": 0.000507, "unit": "s⁻¹"}, {"measurement": "kon", "setting": "mfNPR1-mFc [3]", "result": 31200, "unit": "M⁻¹ s⁻¹"}, {"measurement": "t½", "setting": "mfNPR1-mFc [3]", "result": 0.38, "unit": "h"}, {"measurement": "100 nM Ag Bound (RU)", "setting": "[4]", "result": 49, "unit": "RU"}, {"measurement": "Kd", "setting": "[4]", "result": 3.53, "unit": "nM"}, {"measurement": "koff", "setting": "[4]", "result": 0.000109, "unit": "s⁻¹"}, {"measurement": "kon", "setting": "[4]", "result": 31000, "unit": "M⁻¹ s⁻¹"}, {"measurement": "t½", "setting": "[4]", "result": 1.76, "unit": "h"}, {"measurement": "100 nM Ag Bound (RU)", "setting": "mfNPR1-mFc:hANP complex [5]", "result": 138, "unit": "RU"}, {"measurement": "Kd", "setting": "mfNPR1-mFc:hANP complex [5]", "result": 4, "unit": "nM"}, {"measurement": "koff", "setting": "mfNPR1-mFc:hANP complex [5]", "result": 0.000219, "unit": "s⁻¹"}, {"measurement": "kon", "setting": "mfNPR1-mFc:hANP complex [5]", "result": 54700, "unit": "M⁻¹ s⁻¹"}, {"measurement": "t½", "setting": "mfNPR1-mFc:hANP complex [5]", "result": 0.88, "unit": "h"}, {"measurement": "100 nM Ag Bound (RU)", "setting": "hNPR1-mFc:hBNP complex [6]", "result": 85, "unit": "RU"}, {"measurement": "Kd", "setting": "hNPR1-mFc:hBNP complex [6]", "result": 3.83, "unit": "nM"}, {"measurement": "koff", "setting": "hNPR1-mFc:hBNP complex [6]", "result": 0.000163, "unit": "s⁻¹"}, {"measurement": "kon", "setting": "hNPR1-mFc:hBNP complex [6]", "result": 42700, "unit": "M⁻¹ s⁻¹"}, {"measurement": "t½", "setting": "hNPR1-mFc:hBNP complex [6]", "result": 1.18, "unit": "h"}, {"measurement": "100 nM Ag Bound (RU)", "setting": "mfNPR1-mFc [7]", "result": 89, "unit": "RU"}, {"measurement": "Kd", "setting": "mfNPR1-mFc [7]", "result": 28.1, "unit": "nM"}, {"measurement": "koff", "setting": "mfNPR1-mFc [7]", "result": 0.00108, "unit": "s⁻¹"}, {"measurement": "kon", "setting": "mfNPR1-mFc [7]", "result": 38200, "unit": "M⁻¹ s⁻¹"}, {"measurement": "t½", "setting": "mfNPR1-mFc [7]", "result": 0.178, "unit": "h"}, {"measurement": "100 nM Ag Bound (RU)", "setting": "[8]", "result": 84, "unit": "RU"}, {"measurement": "Kd", "setting": "[8]", "result": 2.7, "unit": "nM"}, {"measurement": "koff", "setting": "[8]", "result": 0.000134, "unit": "s⁻¹"}, {"measurement": "kon", "setting": "[8]", "result": 49700, "unit": "M⁻¹ s⁻¹"}, {"measurement": "t½", "setting": "[8]", "result": 1.43, "unit": "h"}]}]}
